Source: the supplement of paper PMC9732359
± gives the uncertainty stated by the source.

Experiment: protein stability index of a GFP-peptide fusion (yeast GPS) (PSI 1-4); higher = more stable; sorted into four equal gates, so the index is relative within each strain
Procedure, shortened: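 Yeast carrying a pooled library were grown to mid-log phase in leucine-free medium. Each library plasmid expresses Cherry and has a tiled 17-residue yeast protein peptide fused downstream of GFP. Cells were sorted into four equal gates by GFP/Cherry ratio, and plasmids from each gate were PCR-amplified, Illumina-sequenced and assigned to strains by barcode. Summing, across gates, the read frequency times the gate number gave each peptide's protein stability index.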

Work on QRGKMHGLKQLRDSLAD [NUT2] yielded a protein stability index (doa10∆) of 3.04 ± 0.077, a protein stability index (pdr5∆) of 2.67 ± 0.062 and a protein stability index (san1∆) of 1.48 ± 0.071. For the same sequence, the protein stability index (ubr1∆) was 2.1 ± 0.06.

TTFRNEYGKHDFKNEES [MED8] gave a protein stability index (doa10∆) of 3.05 ± 0.1, a protein stability index (pdr5∆) of 3.01 ± 0.084 and a protein stability index (san1∆) of 3.14 ± 0.051. For the same sequence, the protein stability index (ubr1∆) was 3.28 ± 0.096.

Sequence YEAYPNTSLPPSILEDS [FAS1] has a protein stability index (doa10∆) of 2.15 ± 0.033, a protein stability index (pdr5∆) of 2.4 ± 0.03 and a protein stability index (san1∆) of 2.25 ± 0.037. The protein stability index (ubr1∆) was 2.4 ± 0.027.

VEECPQYIRTLVSEART [SSN8] gave a protein stability index (doa10∆) of 1.67 ± 0.1, a protein stability index (pdr5∆) of 1.7 ± 0.1 and a protein stability index (san1∆) of 1.6 ± 0.14. For the same sequence, the protein stability index (ubr1∆) was 1.87 ± 0.061.

GTFTADYSKPNLPPHYA [SSN2] gave a protein stability index (doa10∆) of 2.23 ± 0.055, a protein stability index (pdr5∆) of 2.28 ± 0.049 and a protein stability index (san1∆) of 2.16 ± 0.068. For the same sequence, the protein stability index (ubr1∆) was 2.15 ± 0.039.

In the case of VRVQFQFTGFLLHEMTQ [GRR1], the protein stability index (doa10∆) is reported as 1.83 ± 0.067, the protein stability index (pdr5∆) is reported as 2.08 ± 0.061 and the protein stability index (san1∆) is reported as 1.91 ± 0.074. The protein stability index (ubr1∆) was 1.85 ± 0.053.

KDDGAFVKFLSKKGSLE [RPL10] gave a protein stability index (doa10∆) of 3.51 ± 0.18, a protein stability index (pdr5∆) of 3.32 ± 0.14 and a protein stability index (san1∆) of 3.06 ± 0.068. The protein stability index (ubr1∆) was 3.25 ± 0.064.

For DTAVKTAETGYIQRRLV [RPO21], the protein stability index (doa10∆) was 1.75 ± 0.053, the protein stability index (pdr5∆) was 2.5 ± 0.069 and the protein stability index (san1∆) was 1.98 ± 0.12. The protein stability index (ubr1∆) was 2.13 ± 0.058.

Work on LGLYVGVDDQILATNSL [YJL039C/NUP192] yielded a protein stability index (doa10∆) of 2.64 ± 0.092, a protein stability index (pdr5∆) of 3.06 ± 0.12 and a protein stability index (san1∆) of 2.3 ± 0.11. For the same sequence, the protein stability index (ubr1∆) was 1.73 ± 0.16.

In the case of RPPVKAILQEKILSILN [ECM29], the protein stability index (doa10∆) is reported as 1.46 ± 0.058, the protein stability index (pdr5∆) is reported as 1.83 ± 0.084 and the protein stability index (san1∆) is reported as 1.71 ± 0.14. It also gave a protein stability index (ubr1∆) of 2 ± 0.11.

CVKAIEALFQSRPDILS [YCG1] showed a protein stability index (doa10∆) of 3.19 ± 0.083, a protein stability index (pdr5∆) of 2.47 ± 0.085 and a protein stability index (san1∆) of 3.03 ± 0.082. For the same sequence, the protein stability index (ubr1∆) was 3.05 ± 0.087.

Sequence EALAFTSLVANENDKIY [YDL116W/NUP84] has a protein stability index (doa10∆) of 1.85 ± 0.06, a protein stability index (pdr5∆) of 2.4 ± 0.052 and a protein stability index (san1∆) of 2.02 ± 0.12. For the same sequence, the protein stability index (ubr1∆) was 2.93 ± 0.062.

Work on PNDSNDEKVTILVDSLT [SWI1] yielded a protein stability index (doa10∆) of 2.67 ± 0.057, a protein stability index (pdr5∆) of 2.81 ± 0.065 and a protein stability index (san1∆) of 3.01 ± 0.071. The protein stability index (ubr1∆) was 3.06 ± 0.042.

In the case of KTLCARAVANRTDATFI [RPT1], the protein stability index (doa10∆) is reported as 1.39 ± 0.12, the protein stability index (pdr5∆) is reported as 1.37 ± 0.12 and the protein stability index (san1∆) is reported as 1.26 ± 0.15. The protein stability index (ubr1∆) was 1.37 ± 0.18.

With AQRLQISDYQQLESIYF [SWI1] the protein stability index (doa10∆) was 2.38 ± 0.05, the protein stability index (pdr5∆) was 1.95 ± 0.027 and the protein stability index (san1∆) was 2.58 ± 0.043. It also gave a protein stability index (ubr1∆) of 2.76 ± 0.046.

In the case of ATHLPKDNVEHLVMRAI [RPN9], the protein stability index (doa10∆) is reported as 2.88 ± 0.089, the protein stability index (pdr5∆) is reported as 3.09 ± 0.07 and the protein stability index (san1∆) is reported as 2.77 ± 0.067. For the same sequence, the protein stability index (ubr1∆) was 2.9 ± 0.06.

For AFGLGAIMSKSSLEELL [ECM29], the protein stability index (doa10∆) was 1.83 ± 0.089, the protein stability index (pdr5∆) was 2.07 ± 0.074 and the protein stability index (san1∆) was 1.71 ± 0.12. The protein stability index (ubr1∆) was 2.06 ± 0.052.

FVSYFGKQIKSTIYNWG [YML103C/NUP188] showed a protein stability index (doa10∆) of 1.67 ± 0.11, a protein stability index (pdr5∆) of 1.39 ± 0.071 and a protein stability index (san1∆) of 1.47 ± 0.099. The protein stability index (ubr1∆) was 1.6 ± 0.066.

In the case of LGTIESAQAETEALLLE [DIS3], the protein stability index (doa10∆) is reported as 2.92 ± 0.1, the protein stability index (pdr5∆) is reported as 3.09 ± 0.092 and the protein stability index (san1∆) is reported as 3.18 ± 0.097. It also gave a protein stability index (ubr1∆) of 2.82 ± 0.062.

With CKDDVQLQKILESLKPI [MTW1] the protein stability index (doa10∆) was 3.11 ± 0.11, the protein stability index (pdr5∆) was 2.94 ± 0.089 and the protein stability index (san1∆) was 2.79 ± 0.06. The protein stability index (ubr1∆) was 2.87 ± 0.07.

Work on RGFGKINKQRVPLSDNA [RPL7A] yielded a protein stability index (doa10∆) of 3.03 ± 0.091, a protein stability index (pdr5∆) of 3.5 ± 0.11 and a protein stability index (san1∆) of 3.29 ± 0.094. For the same sequence, the protein stability index (ubr1∆) was 2.91 ± 0.066.

MSANGFAADGDALVKRF [PRE7] gave a protein stability index (doa10∆) of 3.35 ± 0.26, a protein stability index (pdr5∆) of 3.4 ± 0.23 and a protein stability index (san1∆) of 2.9 ± 0.21. The protein stability index (ubr1∆) was 3.41 ± 0.053.

LRNWEELNIIPRDLLRV [PRP28] gave a protein stability index (doa10∆) of 1.09 ± 0.068, a protein stability index (pdr5∆) of 1.35 ± 0.061 and a protein stability index (san1∆) of 1.39 ± 0.21. It also gave a protein stability index (ubr1∆) of 1.07 ± 0.048.

With AKRNLDANPSSQIIARN [SMC2] the protein stability index (doa10∆) was 2.49 ± 0.083, the protein stability index (pdr5∆) was 2.79 ± 0.076 and the protein stability index (san1∆) was 3.09 ± 0.095. It also gave a protein stability index (ubr1∆) of 2.92 ± 0.065.

For TAVNGIDTDLFGAPNNP [YGL172W/NUP49], the protein stability index (doa10∆) was 3.1 ± 0.083, the protein stability index (pdr5∆) was 3.23 ± 0.08 and the protein stability index (san1∆) was 3.25 ± 0.058. The protein stability index (ubr1∆) was 3.19 ± 0.053.

GISVPFHSTYLMNGVKP [FAS1] showed a protein stability index (doa10∆) of 1.46 ± 0.042, a protein stability index (pdr5∆) of 1.51 ± 0.04 and a protein stability index (san1∆) of 1.27 ± 0.074. The protein stability index (ubr1∆) was 1.39 ± 0.027.
